Patent publication US7892775B2, “Fluorescence assay for kinase activity” (Massachusetts Institute of Technology, priority 2003, dated 2011)
Marks after values point to notes of the source that are not given here. Sox = metal binding amino acid

Legend:
[1] = target: T1, cAMP-dependent Protein Kinase (Catalytic Subunit) (Mus musculus, UniProt P05132); assay: Continuous fluorescence kinase assay, kinetic constants of Sox peptide substrate with PKA; assay type: biochemical; conditions: 20 mM HEPES pH 7.4, 10 mM MgCl2, 1 mM ATP, 1 mM DTT, 40 units PKA, 30° C.; average of four Hanes plots
T1 construct: purchased Calbiochem
Procedure: A typical reaction contained solution 5 (90 μl), solution 6 (20 μl), solution 7 (1 μl) and an appropriate volume of substrate stock solution. Enzyme working stock (1 μl) was added to begin the reaction.
5 nm emission and excitation slit widths were used.
Substitution of (2) into (I) followed by rearrangement, yields: […]

Protein Kinase Cα = Protein Kinase Cα (Homo sapiens, UniProt P17252); conditions: 20 mM HEPES pH 7.4, 10 mM MgCl2, 0.3 mM CaCl2, 1 mM ATP, 0.7 nM PKCα, 30° C.; average of four Hanes plots
Procedure: PKC: On the day of the assay, a 1 μl aliquot of Protein Kinase Cα (Human, Recombinant, Calbiochem) was diluted with 20 μl of solution 4 and stored on ice. A typical reaction contained solution 4 (84 μl), solution 6 (19 μl), solution 8 (5 μl), solution 7 (1 μl), and enzyme working stock (1 μl). An appropriate volume of substrate stock solution was added to begin the reaction.
Fluorescence experiments were performed on a Fluoromax 3 from Jobin Yvon. 5 nm emission and excitation slit widths were used. For all experiments, an excitation wavelength of 360 nm was used. Enzyme assays were performed by monitoring emission at 485 nm.
To solve for Km and Vmax for this reaction, determination of the initial rate of product formation from the increase in fluorescence intensity is necessary. With this sensor, a correction for the decrease in fluorescence intensity due to the starting material being consumed is needed to determine the rate of product formation from the initial slope. The fluorescence intensity at any given point can be determined from the following equation: I(t)=fSS(t)+fPP(t) (1) where I(t) is the fluorescence intensity, S(t) is the amount of substrate in μM, P(t) is the amount of product in μM, fS is the fluorescence intensity per μM) of substrate, and fP is fluorescence intensity per μM of product. The amount of substrate and product at any given point are related by: S(t)+P(t)=S0 (2) where S0 is the initial amount of substrate. Substitution of (2) into (I) followed by rearrangement, yields:
The initial slope of the reaction, dI(t)/dt, was measured within the first 5% of substrate turnover. The constants fP and fS were calculated from the slope of a line of fluorescence intensity versus concentration of P and S, respectively. A linear fit of a Hanes plot ([…]) was used to find Km and Vmax.

| Substance | Km [1] [µM] | Vmax [1] | Km (Protein Kinase Cα) [µM] | Vmax (Protein Kinase Cα) |
| --- | --- | --- | --- | --- |
| Ac-Leu-Arg-Arg-Ala-Ser-Leu-Pro-Sox-NH2 (Ac-LRRASLP-{Sox-NH2}) [Ac-LRRAS*LP-Sox-NH2, Sox-containing peptide substrate (sensor) for PKA] | 1.8 ± 0.5 | 3.7 ± 1.6^f μmol/min/mg | – | – |
| Ac-Sox-Pro-Gly-Ser-Phe-Arg-Arg-Arg-NH2 [Ac-Sox-PGS*FRRR-NH2] | – | – | 8.6 ± 2.9 | 5.9 ± 1.9^d μmol/min/mg |
| Ac-Sox-Pro-Gly-Thr-Phe-Arg-Arg-Arg-NH2 ({Ac-Sox}-PGTFRRR-NH2) [Ac-Sox-PGT*FRRR-NH2] | – | – | 23 ± 3 | 2.3 ± 0.6^d μmol/min/mg |
